Test results published in patent CN114989309A.

Biological target: T1, 抗原表位融合多肽AFBMG
T1 sequence: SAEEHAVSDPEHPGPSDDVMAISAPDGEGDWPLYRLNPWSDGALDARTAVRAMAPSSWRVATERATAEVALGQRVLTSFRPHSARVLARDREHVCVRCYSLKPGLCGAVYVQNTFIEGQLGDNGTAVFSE
Experiment: colloidal gold test strip with gold-labelled Nano-AF; dilution series of AFBMG from 1 mg/mL, three repeats

B1: 黄曲霉毒素纳米抗体Nano-AF (VHH)
VHH: QLQLGGSGGGLVQPGGLVQACAASGSTFAGFRAMGWRQAFRQAREFVAAITWSGASTYYTDSVKGRFTISRDNAKNTVYLQMNNLESLKPEDTAVYYCAGFMYYASNYCRYWGQGTQVTVSS
Work on B1 yielded a 最低检测限 of 10 ng/mL.
